Assay [1] has as its target AHSV VP7重组蛋白 (recombinant African horse sickness virus VP7 protein) (African horse sickness virus).
Assay [2] shares this target. Nature of the assay: indirect ELISA on coated recombinant VP7 (0.5 ug/mL); 1H4 at 0.25 ug/mL (1:8000). For orientation: ELISA stands for enzyme-linked immunosorbent assay.
Assay [3] has the same target. Kind of assay: indirect ELISA on coated recombinant VP7 (0.5 ug/mL); 1H4 at 1 ug/mL (1:2000).
For assay [4] the target is unchanged. This is another data set of the same source.
Assay [5] shares this target. Kind of assay: indirect ELISA on coated recombinant VP7; end-point titer by P/N > 2.1.
For assay [6] the target is unchanged. Nature of the assay: indirect ELISA on coated recombinant VP7 (0.5 ug/mL); 1H4 at 0.5 ug/mL (1:4000).

Where two headings read alike, the source gives them in different places.

As for 阴性抗体 (negative antibody), the OD450 in assay [1] was determined as 0.0378 OD450.

B1: 抗AHSV VP7单克隆抗体1H4 (monoclonal antibody 1H4 against African horse sickness virus VP7 protein) (antibody, V domains shown)
VH: EVQLVESGGGLVQPGGSLKLSCAASGFTFSRYGMSWVRQTPDKRLELVAIIKNDGRSSYYPDSVKGRFTIYRDNAKNTLYLQMSTLKSEDTAMYHCAYGSSLYWYFDVWGAGTTVTVSS
VL: DVLMTQTPLSLPVSLGDQASISCRSSQSIVHSNGNTYLEWYLQKPGQSPKLLIYKVSNRFSGVPARFSGSGSGTGFTLKISRVEAEDLGVYYCFQGSHVPPTFGGGTKLEIK
As to B1, the OD450 came out at 2.93 OD450 in assay [2], 4.09 OD450 in assay [3], 3.58 OD450 in assay [4] and 2.87 OD450 in assay [6]. Further, the 效价 (ELISA titer, P/N > 2.1) (dilution factor (1:x)) in assay [5] came to 1.02e+06. For the same molecule, the 效价对应的稀释浓度 (antibody concentration at the end-point titer) in assay [5] is 1.95 ng/mL.

(Values after patent publication CN116769021A.)
